According to the supplement of paper PMC7877785:
± gives the uncertainty stated by the source.

Experiment: self-splicing fitness, log relative to wild type (ln ratio); higher = more splicing; Tetrahymena group I intron in knt gene, E. coli kanamycin selection, DiMSum; sequences stand for … in CUCUCU…GGAGGGAAAAGUUAUCAGGCAUGCACCUGGUAGCUAGUCUUUAAACCAAUAGAUUGCAUCGGUUUAAAAGGCAAGACCGUCAAAUUGCGGGAAAGGGGUCAACAGCCGUUCAGUACCAAGUCUCAGGGGAAACUUUGAGAUGGCCUUGCAAAGGGUAUGGUAAUAAGCUGACGGACAUGGUCCUAACCACGCAGCCAAGUCCUAAGUCAACAGAUCUUCUGUUGAUAUGGAUGCAGUUCACAGACUAAAUGUCGGUCGGGGAAGAUGUAUUCUUCUCAUAAGAUAUAGUCGGACCUCUCCUUAAUGGGAGCUAGCGGAUGAAGUGAUGCAACACUGGAGCCGCUGGGAACUAAUUUGUAUGCGAAAGUAUAUUGAUUAGUUUUGGAGUACUCGUGGUCG
Outline: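 Fitness was computed with DiMSum as the error-weighted combination of replicate fold changes, kanamycin versus none, each normalised to wild type. The library randomised all eight intron nucleotides of the P1ex region, with the intron placed in the knt kanamycin-resistance gene on pET-22b(+) in E. coli BL21(DE3). Six replicate transformations were grown overnight at 37°C or 30°C on LB agar with or without 25 μg/mL kanamycin, plus 100 μg/mL carbenicillin, 50 μM IPTG and 0.2% rhamnose. Pooled colonies were amplicon-sequenced on an Illumina HiSeq 2500.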

| Sequence | self-splicing fitness (ln) (30 °C) | self-splicing fitness (ln) (37 °C) |
| --- | --- | --- |
| CAAAAGCAAUAUUACGCCGA | -2.91 ± 0.23 | -2.49 ± 0.25 |
| CAAAAGCAAUAUUACGGGUC | -3.11 ± 0.094 | -2.51 ± 0.12 |
| GCCUAGCAAUAUUACGCUCU | -0.984 ± 0.06 | 0.106 ± 0.083 |
| UAUUAGCAAUAUUACGUCUG | 0.0275 ± 0.14 | -0.652 ± 0.1 |
| UCAAAGCAAUAUUACGUAUC | -3.73 ± 0.23 | -2.17 ± 0.19 |
| UAAAAGCAAUAUUACGUCAU | -3.62 ± 0.14 | -1.88 ± 0.1 |
| UGGAAGCAAUAUUACGUUUA | -0.859 ± 0.072 | -0.47 ± 0.086 |
| CGUAAGCAAUAUUACGGAUC | -3.4 ± 0.23 | -3.44 ± 0.37 |
| GACUAGCAAUAUUACGAUCA | -0.805 ± 0.062 | -0.314 ± 0.077 |
| UAAGAGCAAUAUUACGUGUU | -3.32 ± 0.18 | -2.96 ± 0.3 |
| GUGCAGCAAUAUUACGGACU | -1.28 ± 0.11 | -0.884 ± 0.14 |
| UUCUAGCAAUAUUACGCAGG | -3.52 ± 0.4 | – |
| AUCGAGCAAUAUUACGCGAU | -2.06 ± 0.27 | – |
| GGGAAGCAAUAUUACGUUCG | -0.436 ± 0.11 | 0.00472 ± 0.17 |
| UUCCAGCAAUAUUACGAGUU | -3.21 ± 0.13 | -1.6 ± 0.092 |
| GCUAAGCAAUAUUACGCCAU | -2.71 ± 0.2 | -3.21 ± 0.27 |
| UCUCAGCAAUAUUACGGAAA | -1.45 ± 0.14 | -0.892 ± 0.14 |
| AACUAGCAAUAUUACGAGGG | -2.13 ± 0.12 | -2.24 ± 0.19 |
| UCCCAGCAAUAUUACGCUGA | -2.26 ± 0.12 | -3.02 ± 0.21 |
| GUACAGCAAUAUUACGGUGU | -3.2 ± 0.14 | -1.51 ± 0.13 |
| UUAUAGCAAUAUUACGAGCA | -2.02 ± 0.17 | -1.49 ± 0.17 |
| UAUAAGCAAUAUUACGACGA | -0.51 ± 0.14 | -1.36 ± 0.15 |
| GCGAAGCAAUAUUACGAGCA | -1.52 ± 0.2 | -1.63 ± 0.25 |
| UUAGAGCAAUAUUACGUGGA | -2.18 ± 0.13 | -1.6 ± 0.12 |
| GACCAGCAAUAUUACGCGUG | -0.273 ± 0.041 | 0.216 ± 0.059 |
| UGAAAGCAAUAUUACGCGUC | -2.59 ± 0.31 | -2.56 ± 0.34 |

| Sequence | self-splicing fitness (ln) (30 °C) | self-splicing fitness (ln) (37 °C) |
| --- | --- | --- |
| AAAAAGCAAUAUUACGUGAU | -2.07 ± 0.072 | -0.588 ± 0.09 |
| CAAGAGCAAUAUUACGGCAC | -4.28 ± 0.24 | -2.53 ± 0.18 |
| CUCGAGCAAUAUUACGUGGU | -3.41 ± 0.16 | -2.49 ± 0.18 |
| CUUUAGCAAUAUUACGCAUA | -3.68 ± 0.37 | – |
| AGGUAGCAAUAUUACGUAGC | -2.916 ± 0.021 | -1.94 ± 0.036 |
| AGCGAGCAAUAUUACGCGAC | -2.33 ± 0.27 | – |
| AUGCAGCAAUAUUACGGUAC | -2.35 ± 0.095 | -1.52 ± 0.14 |
| CCGGAGCAAUAUUACGACGU | -0.341 ± 0.08 | -0.163 ± 0.096 |
| AGGAAGCAAUAUUACGCACC | -1.52 ± 0.16 | 0.0459 ± 0.16 |
| CAGCAGCAAUAUUACGAAAU | -3.94 ± 0.25 | -2.97 ± 0.27 |
| GAUUAGCAAUAUUACGAAGU | -2.54 ± 0.16 | -0.783 ± 0.12 |
| GCUUAGCAAUAUUACGGGUC | -3.24 ± 0.23 | -2.31 ± 0.28 |
| CCGUAGCAAUAUUACGCCCA | – | -2.54 ± 0.48 |
| AGCGAGCAAUAUUACGUGGG | -2.35 ± 0.27 | -3.19 ± 0.35 |
| CUAUAGCAAUAUUACGUGUU | -3.74 ± 0.16 | -3.15 ± 0.27 |
| UAUCAGCAAUAUUACGCUCG | -0.0189 ± 0.079 | 0.35 ± 0.12 |
| UAUAAGCAAUAUUACGUAAU | -3.56 ± 0.37 | -0.822 ± 0.19 |
| GGCAAGCAAUAUUACGGUCG | -0.22 ± 0.072 | 0.553 ± 0.099 |
| GUAGAGCAAUAUUACGUUCG | -1.08 ± 0.065 | -0.139 ± 0.13 |
| CGAUAGCAAUAUUACGUUAU | -3.93 ± 0.33 | -1.61 ± 0.18 |
| CCGCAGCAAUAUUACGAUAU | -4.2 ± 0.23 | -2.76 ± 0.17 |
| UGUAAGCAAUAUUACGUGUA | -1.52 ± 0.077 | -0.97 ± 0.093 |
| GGGAAGCAAUAUUACGCAAG | -2.81 ± 0.16 | -1.14 ± 0.14 |
| AUAAAGCAAUAUUACGUCGA | -0.992 ± 0.068 | 0.858 ± 0.086 |
| AGCUAGCAAUAUUACGCACC | -0.833 ± 0.15 | -0.409 ± 0.19 |
| GUAUAGCAAUAUUACGUUGU | -2.78 ± 0.26 | -1.72 ± 0.23 |

| Sequence | self-splicing fitness (ln) (30 °C) | self-splicing fitness (ln) (37 °C) |
| --- | --- | --- |
| UUUGAGCAAUAUUACGGUCA | -1.47 ± 0.28 | -3.07 ± 0.4 |
| UAUAAGCAAUAUUACGUGAC | -2.15 ± 0.19 | -0.695 ± 0.3 |
| GGUCAGCAAUAUUACGCGAA | -0.889 ± 0.069 | 0.00884 ± 0.088 |
| UAUUAGCAAUAUUACGGCGU | -1.24 ± 0.18 | -0.989 ± 0.18 |
| AUGGAGCAAUAUUACGCGCG | -2.41 ± 0.17 | -1.27 ± 0.19 |
| UUAAAGCAAUAUUACGCUCG | 0.194 ± 0.12 | 0.654 ± 0.15 |
| UUAGAGCAAUAUUACGCAUG | -1.12 ± 0.11 | -0.298 ± 0.12 |
| GUAAAGCAAUAUUACGGGGC | -3.07 ± 0.23 | -2.29 ± 0.15 |
| UGUGAGCAAUAUUACGCCUC | -1.83 ± 0.41 | – |
| AGACAGCAAUAUUACGUAAA | -2.15 ± 0.072 | -1.05 ± 0.08 |
| CCGAAGCAAUAUUACGCCUC | -1.84 ± 0.28 | – |
| GCUCAGCAAUAUUACGCUGU | -1.22 ± 0.073 | -0.159 ± 0.081 |
| AUCAAGCAAUAUUACGUGCA | -0.986 ± 0.077 | -0.556 ± 0.088 |
| AAGUAGCAAUAUUACGACUU | -0.629 ± 0.11 | -1.34 ± 0.13 |
| UAUAAGCAAUAUUACGCUUU | -4.08 ± 0.35 | -2.77 ± 0.3 |
| AAGGAGCAAUAUUACGCUCG | -0.454 ± 0.13 | -0.814 ± 0.17 |
| UAAUAGCAAUAUUACGCGUC | -2.88 ± 0.36 | -2 ± 0.38 |
| CAGUAGCAAUAUUACGGCUG | -3.85 ± 0.47 | -2.37 ± 0.34 |
| GCUCAGCAAUAUUACGUUGU | -0.847 ± 0.042 | -0.0979 ± 0.057 |
| AUAAAGCAAUAUUACGAAUC | -4.22 ± 0.42 | -1.31 ± 0.22 |
| CGACAGCAAUAUUACGUAAA | -3.02 ± 0.15 | -2.28 ± 0.21 |
| GACUAGCAAUAUUACGUUGU | -3.19 ± 0.14 | -2.17 ± 0.12 |
| UGCCAGCAAUAUUACGGGGU | -3.57 ± 0.21 | -2.48 ± 0.2 |
| GGAUAGCAAUAUUACGCCGG | – | -1.28 ± 0.42 |
| UAGUAGCAAUAUUACGGAUC | -2.87 ± 0.11 | -0.854 ± 0.079 |
